From US20250195658A1 (ST JUDE CHILDREN S RESEARCH HOSPITAL, published 2025) come the findings set out here.

In assay [1] the target is T1, cell surface glucose-regulated-protein 78 (GRP78) (UniProt P11021 19-654, limits assumed).
T1 construct: whole, on cells; also called GRP78 antigen; HSPA5
Description: flow cytometry on cell lines, 2-step staining with Streptavidin PE. The procedure:
(§1) Flow cytometric analysis. Cells were stained with fluorochrome-conjugated primary antibodies for 30 min at room temperature and washed with FACS buffer (5% FBS in 1×PBS) prior to analysis. Cell surface GRP78 was detected by a GRP78-specific peptide with an N-terminal Biotin tag (Biotin-Ahx-[…]; SEQ ID NO: 126) was obtained from Genscript (Piscataway, NJ) in combination with Streptavidin PE (BioLegend, San Diego, CA. CCAT #405204) using a 2-step staining protocol. Cells were incubated with GRP78 peptide for 30 minutes at room temperature, protected from light. Cells were washed twice prior to staining with additional antibodies. Recombinant CD123 Recombinant Human IL3RA protein conjugated to APC (Creative BioMart, CAT #IL3RA-3248HA) was used to detect CD123 scFv binding. The following antibodies were purchased from BD Biosciences: CCR7 Pacific Blue (BD Pharmigen, Clone G043H7 CAT #353210), CD45RO PerCP-Cy5.5 (BD Pharmigen, Clone UCHL1, CAT #560607), CD123 APC (BD Pharmigen, Clone 7G3, CAT #560087), CD3 BV421 (BD Horizon, Clone SK7, CAT #563797), CD3 BV786 (BD Horizon, Clone SK7, CAT #563800), CD19 PE-Cy7 (BD Pharmigen, Clone HIB19, CAT #560728), CD20 BV650 (BD Horizon, Clone 2H7, CAT #563780). […]
For orientation: A flow cytometer gives signals particle by particle.

The target in assay [2] is T2, Recombinant Human IL3RA protein conjugated to APC (Creative BioMart, CAT #IL3RA-3248HA) (human, UniProt P26951 19-305, limits assumed, conjugated to APC).
T2 construct: also called recombinant CD123 protein; Recombinant CD123
T2 sequence (looked up): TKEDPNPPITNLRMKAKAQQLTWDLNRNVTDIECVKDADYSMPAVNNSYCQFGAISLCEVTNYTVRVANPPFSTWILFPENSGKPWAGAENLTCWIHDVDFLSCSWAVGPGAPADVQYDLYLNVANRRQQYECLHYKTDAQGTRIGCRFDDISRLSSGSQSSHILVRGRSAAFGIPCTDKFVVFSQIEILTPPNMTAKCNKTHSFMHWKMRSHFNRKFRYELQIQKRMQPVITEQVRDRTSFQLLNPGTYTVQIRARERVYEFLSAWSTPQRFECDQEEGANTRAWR
Description: flow cytometry of CAR T cells stained with APC-conjugated recombinant human IL3RA (FIG. 2B). The procedure: as §1

No end group written: not given here. *: point of attachment. Biotin = O=C1N[C@H]2[C@H](CS[C@H]2CCCCC(=O)*)N1; Ahx = NCCCCCC(=O)O

T1 sequence (P11021 19-654 limits assumed): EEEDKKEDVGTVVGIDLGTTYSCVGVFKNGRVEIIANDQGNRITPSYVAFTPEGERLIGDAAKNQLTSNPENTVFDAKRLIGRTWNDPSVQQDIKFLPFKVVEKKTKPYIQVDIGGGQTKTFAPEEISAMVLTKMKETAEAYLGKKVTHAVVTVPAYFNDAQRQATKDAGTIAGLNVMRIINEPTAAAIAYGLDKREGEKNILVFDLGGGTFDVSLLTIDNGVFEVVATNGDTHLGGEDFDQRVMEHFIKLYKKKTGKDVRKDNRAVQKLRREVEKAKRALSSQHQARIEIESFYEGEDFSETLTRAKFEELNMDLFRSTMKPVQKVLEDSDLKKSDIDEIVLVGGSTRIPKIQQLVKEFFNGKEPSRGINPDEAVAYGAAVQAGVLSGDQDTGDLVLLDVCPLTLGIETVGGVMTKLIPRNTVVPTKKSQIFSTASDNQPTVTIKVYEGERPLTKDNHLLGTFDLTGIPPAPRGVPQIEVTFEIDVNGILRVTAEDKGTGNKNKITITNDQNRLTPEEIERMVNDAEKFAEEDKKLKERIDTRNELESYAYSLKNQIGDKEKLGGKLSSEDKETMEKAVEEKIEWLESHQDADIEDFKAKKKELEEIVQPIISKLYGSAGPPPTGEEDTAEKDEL

B1: GRP78-specific peptide with an N-terminal Biotin tag (Biotin-Ahx-CTVALPGGYVRVC) (peptide)
peptide: {Biotin-Ahx}-CTVALPGGYVRVC
modifications: cysteine pairing not given here
notes: Obtained from Genscript; Detected with Streptavidin PE in a 2-step staining; also called GRP78-biotin; GRP78 peptide
Turning to B1, in assay [1], the binding result is reported as “binds”.

B2: GRP78-G4S3-CD123-CAR (other)
chain: CTVALPGGYVRVCEFGGGGSGGGGSGGGGSAAAQVQLQQPGAELVRPGASVKLSCKASGYTFTSYWMNWVKQRPDQGLEWIGRIDPYDSETHYNQKFKDKAILTVDKSSSTAYMQLSSLTSEDSAVYYCARGNWDDYWGQGTTLTVSSGGGGSGGGGSGGGGSDVQITQSPSYLAASPGETITINCRASKSISKDLAWYQEKPGKTNKLLIYSGSTLQSGIPSRFSGSGSGTDFTLTISSLEPEDFAMYYCQQHNKYPYTFGGGTKLEIKSIEVMYPPPYLDNEKSNGTIIHVKGKHLCPSPLFPGPSKPFWVLVVVGGVLACYSLLVTVAFIIFWVRSKRSRLLHSDYMNMTPRRPGPTRKHYQPYAPPRDFAAYRSRVKFSRSADAPAYQQGQNQLYNELNLGRREEYDVLDKRRGRDPEMGGKPRRKNPQEGLYNELQKDKMAEAYSEIGMKGERRRGKGHDGLYQGLSTATKDTYDALHMQALPPR
notes: Residues from 510 on (spacer RSGVDSG, T2A, tCD19) are also left out; also called 78.(G4S)3.123; G4S2
As for B2, the “% of transduced T cells positive for recombinant CD123 protein” value in assay [2] was 87.5%.

B3: GRP78-GPcPcPc-CD123-CAR (other)
chain: CTVALPGGYVRVCEFAGSGGSGGSGGSPVPSTPPTNSSSTPPTPSPSPVPSTPPTNSSSTPPTPSPSPVPSTPPTNSSSTPPTPSPSASAAAQVQLQQPGAELVRPGASVKLSCKASGYTFTSYWMNWVKQRPDQGLEWIGRIDPYDSETHYNQKFKDKAILTVDKSSSTAYMQLSSLTSEDSAVYYCARGNWDDYWGQGTTLTVSSGGGGSGGGGSGGGGSDVQITQSPSYLAASPGETITINCRASKSISKDLAWYQEKPGKTNKLLIYSGSTLQSGIPSRFSGSGSGTDFTLTISSLEPEDFAMYYCQQHNKYPYTFGGGTKLEIKSIEVMYPPPYLDNEKSNGTIIHVKGKHLCPSPLFPGPSKPFWVLVVVGGVLACYSLLVTVAFIIFWVRSKRSRLLHSDYMNMTPRRPGPTRKHYQPYAPPRDFAAYRSRVKFSRSADAPAYQQGQNQLYNELNLGRREEYDVLDKRRGRDPEMGGKPRRKNPQEGLYNELQKDKMAEAYSEIGMKGERRRGKGHDGLYQGLSTATKDTYDALHMQALPPR
For B3, in assay [2], the “% of transduced T cells positive for recombinant CD123 protein” value came to 83.6%.
